# Like-named read-outs stand apart in the source and are kept apart here.
# T1: Dpo4 (SsoDpo4, Y-family DNA polymerase) (Sulfolobus solfataricus, UniProt Q97W02 1-352)
# T1 sequence: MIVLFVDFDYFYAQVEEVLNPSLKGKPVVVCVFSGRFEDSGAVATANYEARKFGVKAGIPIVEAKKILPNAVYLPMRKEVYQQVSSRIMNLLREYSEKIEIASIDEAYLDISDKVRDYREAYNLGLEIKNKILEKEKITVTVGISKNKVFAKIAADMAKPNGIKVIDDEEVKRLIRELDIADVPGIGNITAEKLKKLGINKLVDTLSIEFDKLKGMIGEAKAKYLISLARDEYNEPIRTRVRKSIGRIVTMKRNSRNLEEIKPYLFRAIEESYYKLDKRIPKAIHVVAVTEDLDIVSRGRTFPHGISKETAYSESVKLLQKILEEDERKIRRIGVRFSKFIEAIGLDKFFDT
# T2: Dpo1 exo- (SsoDpo1, B-family DNA polymerase) (Sulfolobus solfataricus, UniProt P26811 1-882, D231A;D318A)
# T2 sequence: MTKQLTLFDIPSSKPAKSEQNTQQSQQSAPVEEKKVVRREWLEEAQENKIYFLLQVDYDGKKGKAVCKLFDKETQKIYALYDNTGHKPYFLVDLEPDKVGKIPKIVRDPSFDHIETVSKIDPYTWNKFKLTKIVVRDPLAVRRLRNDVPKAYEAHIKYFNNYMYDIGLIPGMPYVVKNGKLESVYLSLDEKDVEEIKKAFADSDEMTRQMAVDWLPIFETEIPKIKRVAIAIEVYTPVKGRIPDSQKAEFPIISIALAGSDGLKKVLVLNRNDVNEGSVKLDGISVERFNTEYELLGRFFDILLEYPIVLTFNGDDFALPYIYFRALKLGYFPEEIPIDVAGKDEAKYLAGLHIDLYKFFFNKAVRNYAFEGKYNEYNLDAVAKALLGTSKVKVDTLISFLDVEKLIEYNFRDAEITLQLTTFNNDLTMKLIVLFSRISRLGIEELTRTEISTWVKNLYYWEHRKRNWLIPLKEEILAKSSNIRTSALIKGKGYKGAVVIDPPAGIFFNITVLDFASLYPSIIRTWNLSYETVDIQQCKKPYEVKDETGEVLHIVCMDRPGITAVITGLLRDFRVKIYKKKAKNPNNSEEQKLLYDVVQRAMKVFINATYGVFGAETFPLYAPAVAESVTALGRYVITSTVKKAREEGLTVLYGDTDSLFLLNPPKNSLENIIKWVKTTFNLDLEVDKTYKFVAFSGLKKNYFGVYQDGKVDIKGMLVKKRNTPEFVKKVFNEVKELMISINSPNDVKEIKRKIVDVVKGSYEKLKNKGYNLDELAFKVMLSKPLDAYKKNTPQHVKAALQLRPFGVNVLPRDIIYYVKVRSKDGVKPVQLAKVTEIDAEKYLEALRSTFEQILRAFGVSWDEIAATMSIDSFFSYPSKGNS
# What was measured:
# Assay in all cases: fluorescence anisotropy
# [1] = molecular target: T1, Dpo4 (SsoDpo4, Y-family DNA polymerase)
# [2] = molecular target: T2, Dpo1 exo- (SsoDpo1, B-family DNA …)
# [3] = molecular target: T1, Dpo4 (SsoDpo4, Y-family DNA polymerase); remark: listed apart in the source
# [4] = molecular target: T1, Dpo4 (SsoDpo4, Y-family DNA polymerase); remark: listed apart in the source
# [5] = molecular target: T1, Dpo4 (SsoDpo4, Y-family DNA polymerase); remark: listed apart in the source
# [6] = molecular target: T2, Dpo1 exo- (SsoDpo1, B-family DNA …); remark: listed apart in the source
# [7] = molecular target: T2, Dpo1 exo- (SsoDpo1, B-family DNA …); remark: listed apart in the source
# [8] = molecular target: T2, Dpo1 exo- (SsoDpo1, B-family DNA …); remark: listed apart in the source
binder,measurement,setting,value
"TTTTTTTTTTCCCGGGCCGGCGTTTCGCCGGCCCGGG (structured_DNA) [37-nt hairpin primer-template, 5'-Cy3]",Kd,[1],674 ± 80 nM
same,Kd,[2],113 ± 32 nM
same,Kd,[3],130 ± 4 nM
same,Kd,[4],133 ± 26 nM
same,Kd,[5],176 ± 10 nM
same,Kd,[6],109 ± 16 nM
same,Kd,[7],144 ± 3 nM
same,Kd,[8],97 ± 3 nM

# From publication PMC3477848 (Biochemistry, 2012)
